According to patent US20190330365A1 (University of California, published 2019):
Where “and” joins values, the source holds several entries; their conditions need not be identical. Equal entries are not always repeated.

Experiments:
[1] = molecular target: Low-density lipoprotein receptor-related protein 6 (LRP6), human, on cells (human) (UniProt O75581); assay: cell-based or functional assay
[2] = molecular target: T1, Low-density lipoprotein receptor-related protein 6 (LRP6), human, on cells (human, UniProt O75581 20-1613); assay: cell-based or functional assay
T1 sequence (O75581 20-1613): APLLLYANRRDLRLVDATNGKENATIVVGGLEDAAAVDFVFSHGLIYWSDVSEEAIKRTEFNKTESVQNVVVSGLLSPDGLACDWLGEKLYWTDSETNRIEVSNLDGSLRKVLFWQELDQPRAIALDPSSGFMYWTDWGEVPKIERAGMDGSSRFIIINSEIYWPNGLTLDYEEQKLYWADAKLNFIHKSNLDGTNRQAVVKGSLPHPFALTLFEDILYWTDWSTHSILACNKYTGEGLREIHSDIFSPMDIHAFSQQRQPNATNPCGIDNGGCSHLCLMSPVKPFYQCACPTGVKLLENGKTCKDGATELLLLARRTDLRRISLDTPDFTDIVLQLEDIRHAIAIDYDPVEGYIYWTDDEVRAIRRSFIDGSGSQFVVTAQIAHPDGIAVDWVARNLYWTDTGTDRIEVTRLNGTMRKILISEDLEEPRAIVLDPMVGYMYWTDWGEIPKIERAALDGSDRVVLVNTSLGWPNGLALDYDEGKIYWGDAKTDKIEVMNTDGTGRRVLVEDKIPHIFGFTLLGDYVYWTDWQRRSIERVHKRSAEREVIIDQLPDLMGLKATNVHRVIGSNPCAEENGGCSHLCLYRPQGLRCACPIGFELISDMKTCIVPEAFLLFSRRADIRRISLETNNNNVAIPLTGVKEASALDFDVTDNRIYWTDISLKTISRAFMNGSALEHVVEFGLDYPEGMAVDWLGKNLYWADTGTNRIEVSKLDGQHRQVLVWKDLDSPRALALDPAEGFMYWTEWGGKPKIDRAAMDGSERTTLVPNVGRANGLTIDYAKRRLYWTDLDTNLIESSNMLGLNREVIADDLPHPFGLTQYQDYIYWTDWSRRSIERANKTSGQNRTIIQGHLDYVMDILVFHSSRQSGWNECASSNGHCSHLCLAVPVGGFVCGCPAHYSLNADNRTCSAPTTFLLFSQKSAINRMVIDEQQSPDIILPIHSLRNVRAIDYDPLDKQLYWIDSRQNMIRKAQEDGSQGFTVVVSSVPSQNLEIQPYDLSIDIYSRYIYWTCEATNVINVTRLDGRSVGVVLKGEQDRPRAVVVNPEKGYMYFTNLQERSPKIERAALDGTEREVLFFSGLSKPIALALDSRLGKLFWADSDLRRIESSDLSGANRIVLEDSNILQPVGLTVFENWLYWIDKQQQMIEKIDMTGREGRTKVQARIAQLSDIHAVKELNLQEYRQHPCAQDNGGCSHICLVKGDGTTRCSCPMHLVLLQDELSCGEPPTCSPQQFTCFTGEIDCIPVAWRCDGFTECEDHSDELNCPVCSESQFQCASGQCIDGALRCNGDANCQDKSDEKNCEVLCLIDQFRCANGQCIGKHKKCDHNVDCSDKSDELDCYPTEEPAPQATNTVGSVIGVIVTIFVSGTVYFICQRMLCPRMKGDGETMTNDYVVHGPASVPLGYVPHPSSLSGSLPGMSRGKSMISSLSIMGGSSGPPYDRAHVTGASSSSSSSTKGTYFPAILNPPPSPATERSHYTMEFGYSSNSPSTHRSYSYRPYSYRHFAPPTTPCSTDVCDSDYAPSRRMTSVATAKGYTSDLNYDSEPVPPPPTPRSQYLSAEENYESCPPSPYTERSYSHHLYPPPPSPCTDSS

[3] = molecular target: T1, Low-density lipoprotein …; assay: apparent KD, flow cytometry on HEK293 cells that express LRP6, curve fit
Experimental: FIGS. 7A-7E depict the results illustrating characterization of anti-LRP6 scFvs and derived bsAbs. FIG. 7A depicts the results of anti-LRP6 scFv-phage screening by flow cytometry analysis. Individual scFv-phage clones were separately amplified from the 3rd round panning output against LRP6E1E2 or LRP6E3E4 domain. scFv-phage particles were incubated with parental HEK293 or LRP6-transfected HEK293 cells and detected by biotinylated anti-M13 IgG and PE-labeled streptavidin. Relative MFI values (folds of phage binding to LRP6+ cells against LRP6− cells) were plotted on a graph. FIGS. 7B and 7C depict the results of flow cytometry analysis for binding kinetics of E34N19 (B) or E12N21 (C) scFv-Fc to HEK293 cells. The apparent KD was calculated based on the non-linear curve fittings by Prism 5 program. FIG. 7D depicts the results of cell-binding analysis of mono- or bi-specific anti-LRP6 antibodies. Binding of E34N19 scFv-Fc, E34N19 IgG, H/6 TaFv-Fc, 6/H bsIgG, or H3 IgG (each 100 nM) to HEK293 cells originally expressing ALCAM was analyzed by flow cytometry. […]
The apparent antibody binding affinity was measured on target cells by FACS as described (An, Zhu). […] After 1 hr incubation, cells were washed and analyzed by FACS as described above. The apparent KD was determined by a curve fit method using MFI values as described (Benedict, An, Zhu).

[4] = molecular target: T2, Activated leukocyte cell adhesion molecule (ALCAM), on cells (human, UniProt Q13740 28-583); assay: apparent KD on cells
T2 construct: whole, on cells; also called guide antigen
T2 sequence (looked up): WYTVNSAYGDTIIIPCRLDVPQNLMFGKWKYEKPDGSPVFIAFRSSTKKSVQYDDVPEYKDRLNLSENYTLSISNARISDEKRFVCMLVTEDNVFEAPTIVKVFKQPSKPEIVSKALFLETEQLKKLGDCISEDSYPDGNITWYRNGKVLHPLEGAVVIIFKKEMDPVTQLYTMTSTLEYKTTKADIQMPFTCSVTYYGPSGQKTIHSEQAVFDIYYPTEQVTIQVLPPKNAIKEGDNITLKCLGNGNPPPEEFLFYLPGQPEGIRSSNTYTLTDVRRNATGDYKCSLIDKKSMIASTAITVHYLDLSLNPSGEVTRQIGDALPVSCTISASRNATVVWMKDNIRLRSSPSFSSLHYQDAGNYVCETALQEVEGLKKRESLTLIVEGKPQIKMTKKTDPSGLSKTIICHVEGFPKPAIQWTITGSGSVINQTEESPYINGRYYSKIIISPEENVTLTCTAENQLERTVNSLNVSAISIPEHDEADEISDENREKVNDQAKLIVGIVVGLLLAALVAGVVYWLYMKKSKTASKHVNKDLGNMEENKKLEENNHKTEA

[5] = molecular target: T3, EphA2, murine, on CT26 cells (mouse, UniProt Q03145 26-977); assay: FACS on murine colon cancer cell line CT26 that expresses EphA2
T3 construct: whole, on cells; also called murine antigen
T3 sequence (Q03145 26-977): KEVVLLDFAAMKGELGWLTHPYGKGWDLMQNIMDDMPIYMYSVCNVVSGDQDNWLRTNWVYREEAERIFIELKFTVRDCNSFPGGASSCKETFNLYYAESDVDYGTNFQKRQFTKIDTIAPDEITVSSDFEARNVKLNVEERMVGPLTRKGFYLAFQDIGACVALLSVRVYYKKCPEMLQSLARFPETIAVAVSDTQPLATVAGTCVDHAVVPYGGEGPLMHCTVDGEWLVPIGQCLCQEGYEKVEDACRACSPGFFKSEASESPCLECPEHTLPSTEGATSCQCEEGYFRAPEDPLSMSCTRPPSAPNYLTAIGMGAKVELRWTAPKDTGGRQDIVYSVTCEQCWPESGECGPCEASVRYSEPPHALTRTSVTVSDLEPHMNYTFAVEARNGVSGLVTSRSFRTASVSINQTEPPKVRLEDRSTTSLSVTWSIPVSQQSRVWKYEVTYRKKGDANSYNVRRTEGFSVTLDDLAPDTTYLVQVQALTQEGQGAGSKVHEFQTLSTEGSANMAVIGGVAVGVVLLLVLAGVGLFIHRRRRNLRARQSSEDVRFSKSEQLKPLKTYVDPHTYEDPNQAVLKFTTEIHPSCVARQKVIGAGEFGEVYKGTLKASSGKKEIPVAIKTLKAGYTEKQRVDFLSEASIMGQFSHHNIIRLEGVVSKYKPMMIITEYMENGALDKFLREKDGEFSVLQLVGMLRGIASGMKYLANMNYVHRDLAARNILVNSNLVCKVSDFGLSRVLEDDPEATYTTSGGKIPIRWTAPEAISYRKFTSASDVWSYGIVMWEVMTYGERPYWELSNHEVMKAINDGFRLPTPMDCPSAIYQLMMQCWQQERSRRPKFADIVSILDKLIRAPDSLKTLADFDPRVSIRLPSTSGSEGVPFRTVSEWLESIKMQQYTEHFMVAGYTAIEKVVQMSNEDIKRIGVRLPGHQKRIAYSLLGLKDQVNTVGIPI

[6] = molecular target: T4, Ephrin type-A receptor 2 (EphA2), human, on cells (human, UniProt P29317 24-976); assay: FACS
T4 construct: whole, on cells; also called guide antigen
T4 sequence (P29317 24-976): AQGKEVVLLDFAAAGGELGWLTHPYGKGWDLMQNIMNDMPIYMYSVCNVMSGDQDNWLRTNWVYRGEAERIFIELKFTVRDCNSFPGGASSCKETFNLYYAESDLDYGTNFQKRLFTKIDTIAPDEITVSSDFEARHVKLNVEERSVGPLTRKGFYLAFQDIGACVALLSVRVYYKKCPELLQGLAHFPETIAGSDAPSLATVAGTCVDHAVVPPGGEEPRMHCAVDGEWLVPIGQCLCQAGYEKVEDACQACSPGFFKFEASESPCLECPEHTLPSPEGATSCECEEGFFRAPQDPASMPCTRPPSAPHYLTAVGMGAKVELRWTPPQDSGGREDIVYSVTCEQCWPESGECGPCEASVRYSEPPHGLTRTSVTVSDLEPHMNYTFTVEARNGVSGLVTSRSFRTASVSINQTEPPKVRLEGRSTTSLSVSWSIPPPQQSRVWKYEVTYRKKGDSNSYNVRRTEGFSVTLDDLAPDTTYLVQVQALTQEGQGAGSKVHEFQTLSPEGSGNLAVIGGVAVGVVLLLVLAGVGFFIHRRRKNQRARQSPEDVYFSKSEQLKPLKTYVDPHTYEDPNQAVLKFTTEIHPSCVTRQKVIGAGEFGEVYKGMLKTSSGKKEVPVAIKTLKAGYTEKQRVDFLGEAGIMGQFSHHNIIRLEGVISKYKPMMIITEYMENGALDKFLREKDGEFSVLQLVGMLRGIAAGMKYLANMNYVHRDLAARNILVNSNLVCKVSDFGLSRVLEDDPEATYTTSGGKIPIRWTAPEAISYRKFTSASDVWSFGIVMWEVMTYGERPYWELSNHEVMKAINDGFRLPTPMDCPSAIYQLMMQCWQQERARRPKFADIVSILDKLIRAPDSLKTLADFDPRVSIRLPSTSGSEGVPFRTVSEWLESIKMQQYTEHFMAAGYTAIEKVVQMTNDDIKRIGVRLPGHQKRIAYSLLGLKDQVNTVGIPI

Low-density lipoprotein receptor-related protein 6 (LRP6), human, on cells (human), sequence (O75581 20-1613): as the sequence (O75581 20-1613) above

B1: E34N19/H3 bsIgG (bispecific antibody, part only; not given: constant regions and CL-scFv linker, not shown: another chain or arm of the molecule; a dimerising Fc or GST; small tags and cut ends)
VH: QVNLRESGGGLVQPGGSLRLSCAASGFTFSSYAMSWVRQAPGKGLEWVSAISGSGGSTYYADSVKGRFTISRDNSKNTLYLQMNSLRAEDTAVYYCAKVRGHGGNSGWVDYWGQGTLVTVSS
VL: QSVLTQDPAVSVALGQTVKITCQGDSLRTYYTSWYQQRPGQAPILVLYANTHRPSSIPDRFSGSSSGTTASLTITGAQAEDEADYYCNSRDSSGNYLFGGGTKLTVL
scFv: QVQLVESGGGLVQPGGSLRLSCAASGFTFSSYAMSWVRQAPGKGLEWVSAISGSGGSTYYADSVKGRFTISRDNSKDTLYLQMNSLRAEDTAVYYCASRSLLDYWGQGTLVTVSSGGGGSGGGGSGGGGSNFMLTQNPAVSVALGQTVRITCQGDSLRSYYASWYQQKPGQAPLLVIYGKNNRPSGIPDRFSGSSSGNTASLTITGAQAEDEADYYCNSRDSSGNPVFGGGTKVTVL
IC50, STF reporter, Wnt3a-transfected HEK293 [1]: 0.0446 nM

B2: E34N19 scFv-Fc (Fc fusion)
scFv: QVNLRESGGGLVQPGGSLRLSCAASGFTFSSYAMSWVRQAPGKGLEWVSAISGSGGSTYYADSVKGRFTISRDNSKNTLYLQMNSLRAEDTAVYYCAKVRGHGGNSGWVDYWGQGTLVTVSSGGGGSGGGGSGGGGSQSVLTQDPAVSVALGQTVKITCQGDSLRTYYTSWYQQRPGQAPILVLYANTHRPSSIPDRFSGSSSGTTASLTITGAQAEDEADYYCNSRDSSGNYLFGGGTKLTVL
notes: scFv gene cloned into unmodified pFUSE-hIgG1-Fc2; In some assays biotin-labelled as the detection reagent; also called monospecific E34N19; anti-effector mAb E34N19; not shown: human IgG1 Fc of vector pFUSE-hIgG1-Fc2 (InvivoGen)
EC50 (so in the source), STF reporter, Wnt3a, HEK293 [2]: 3.02 nM | IC50, STF reporter, Wnt3a-transfected HEK293 [2]: ~3 nM and 3.43 nM | Kd [3]: ~1.4 nM

B3: E12N21 scFv-Fc (Fc fusion)
scFv: QVQLQESGGGLVKPGGSLRLSCAASGFTFSSYWMSWVRQAPGKGLEWVANIKQDGSEKYYVDSVKGRFTISRDNSKNTLYLQMNSLRAEDTAIYYCAKTMTASAWLGGGRDSWGQGTLVTVSSGGGGSGGGGSGGGGSQSVLTQDPAVSVALGQTVRITCQGDSLRTLSTNWYQQKSGQAPVLVIYGNSNRPSGVPDRFSGSSSGNTASLTITGAQAEDEADYYCQSYDNSVRGSRVFGTGTKLTVL
notes: scFv gene cloned into unmodified pFUSE-hIgG1-Fc2; also called monoclonal E12N21; not shown: human IgG1 Fc of vector pFUSE-hIgG1-Fc2 (InvivoGen)
IC50, STF reporter, Wnt1-transfected HEK293 [2]: ~3.5 nM | IC50, Wnt1-induced STF reporter activity, HEK293 [2]: 2.63 nM | Kd [3]: ~5.2 nM

B4: E34N19 IgG (antibody, V domains shown)
VH: B1 VH
VL: B1 VL
IC50, STF reporter, Wnt3a-transfected HEK293 [2]: 5.2 nM

B5: H3 IgG (antibody, V domains shown)
VH: QVQLVESGGGLVQPGGSLRLSCAASGFTFSSYAMSWVRQAPGKGLEWVSAISGSGGSTYYADSVKGRFTISRDNSKDTLYLQMNSLRAEDTAVYYCASRSLLDYWGQGTLVTVSS
VL: NFMLTQNPAVSVALGQTVRITCQGDSLRSYYASWYQQKPGQAPLLVIYGKNNRPSGIPDRFSGSSSGNTASLTITGAQAEDEADYYCNSRDSSGNPVFGGGTKVTVL
notes: IgG; also called anti-ALCAM H3 IgG; guide antibody H3
Kd [4]: 0.00734 nM

B6: PD32 (anti-ALCAM guide antibody, format not stated) (antibody, V domains shown)
VH: QVQLQESGGGLVQPGGSLRLSCAASGFTFSSYALSWVRQAPGKGLEWVSAISGSGGSTYYAGSVKGRFTISRDNSKNTLYLQMNSLRAEDTAVYYCAKGLIASHWGQGTLVTVSS
VL: SELTQDPAVSVALGQTVRITCQGDSLRSYYASWYQQKPGQAPVLVIYGKNNRPSGIPDRFSGSSSGNTASLTITGAQAEDEADYYCNSRDSSGIHLVFGGGTKLTVL
notes: Called 'guide antibody' and 'corresponding mAbs'; also called GPD32
Kd [4]: 0.388 nM

B7: RYR (anti-EphA2 guide antibody, format not stated) (antibody, V domains shown)
VH: QVQLQESGGGLVQPGGSLRLSCAASGFTFSSYSMNWVRQAPGKGLEWVSYISSSSSTIYYADSVKGRFTISRDNAKNSLYLQMNSLRAEDTAVYYCARYRLPDFWSGYPNYGMDVWGQGTTVTVSS
VL: QSVLTQPPSVSGAPGQRVTISCTGSSSNIGAGYDVHWYQQLPGTAPKLLIYGNSNRPSGVPDRFSGSKSGTSASLAITGLQAEDEADYYCQSYDSSLSGHVVFGGGTKLTVL
notes: also called HCA-F1
binding result [5]: binds | binding result [6]: binds
